Data reported in PMC4428439, “Anti-adaptors use distinct modes of binding to inhibit the RssB-dependent turnover of RpoS (σ^S) by ClpXP” (Frontiers in Molecular Biosciences, 2015).

B3: RssB, full-length, untagged, purified (natural protein, E. coli, UniProt P0AEV1 1-337, looked up)
chain: MTQPLVGKQILIVEDEQVFRSLLDSWFSSLGATTVLAADGVDALELLGGFTPDLMICDIAMPRMNGLKLLEHIRNRGDQTPVLVISATENMADIAKALRLGVEDVLLKPVKDLNRLREMVFACLYPSMFNSRVEEEERLFRDWDAMVDNPAAAAKLLQELQPPVQQVISHCRVNYRQLVAADKPGLVLDIAALSENDLAFYCLDVTRAGHNGVLAALLLRALFNGLLQEQLAHQNQRLPELGALLKQVNHLLRQANLPGQFPLLVGYYHRELKNLILVSAGLNATLNTGEHQVQISNGVPLGTLGNAYLNQLSQRCDAWQCQIWGTGGRLRLMLSAE
notes: RssB (SprE), adaptor protein of ClpXP, E. coli; residues 1-337 by the printed domain limits; Monomeric and dimeric RssB were separated by preparative SEC; degradation assays used monomeric RssB; also called SprE; full-length RssB; source: E. coli, Ub-fusion system, purified (IMAC, preparative SEC)

Key:
[1] = molecular target: B3; assay: pull-down; purified His10-tagged IraD immobilised on Ni-NTA agarose beads; purified untagged RssB, RssBN or RssBC added; washed, eluted with imidazole; SDS-PAGE, CBB; conditions: both partners purified
[2] = molecular target: the molecule itself; assay: SEC; Superdex 75; 5 nmol of IraD, RssBN or the IraD-RssBN complex; chilled GF buffer (20 mM Tris-HCl pH 7.5, 10 mM MgCl2, 0.1 mM EDTA, 1 mM DTT, 140 mM NaCl, 5% glycerol, 0.005% Triton X-100); fractions on SDS-PAGE, CBB
[3] = molecular target: T1, RssBC, C-terminal domain of RssB (residues 131-337), untagged, purified (E. coli, UniProt P0AEV1 131-337); assay: pull-down; purified IraP immobilised on Ni-NTA agarose beads via a C-terminal His10-tag; purified RssB, RssBN or RssBC added; washed, eluted with imidazole; immunoblotting; conditions: both partners purified
T1 construct: RssB, E. coli, C-terminal effector domain, residues 131-337; also called C-terminal effector domain of RssB; source: E. coli, Ub-fusion system, purified (IMAC, SEC)
T1 sequence (looked up): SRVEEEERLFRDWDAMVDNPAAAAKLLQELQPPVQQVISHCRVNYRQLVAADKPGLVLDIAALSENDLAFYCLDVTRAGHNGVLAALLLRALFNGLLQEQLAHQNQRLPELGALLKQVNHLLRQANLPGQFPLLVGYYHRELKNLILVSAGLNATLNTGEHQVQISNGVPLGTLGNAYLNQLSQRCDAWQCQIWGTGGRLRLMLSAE

[4] = molecular target: the molecule itself; assay: SEC; preparative grade SEC in the purification of untagged RssB, separating monomeric and dimeric RssB

B1: His10-tagged IraD (natural protein, E. coli, UniProt P39375 1-130, looked up)
chain: MMRQSLQAVLPEISGNKTSSLRKSVCSDLLTLFNSPHSALPSLLVSGMPEWQVHNPSDKHLQSWYCRQLRSALLFHEPRIAALQVNLKEAYCHTLAISLEIMLYHDDEPLTFDLVWDNGGWRSATLENVS
notes: IraD, anti-adaptor induced by DNA damage, E. coli; source: E. coli, overexpressed, purified (essentially as Bougdour et al., 2008)
Does B1 bind [1]?
Result: binds

What about the “stoichiometry N” value [2] of the same binder?
Its value is 2.

B2: IraP with a C-terminal His10-tag, purified (natural protein, E. coli, UniProt P0AAN9 1-86, looked up)
chain: MKNLIAELLFKLAQKEEESKELCAQVEALEIIVTAMLRNMAQNDQQRLIDQVEGALYEVKPDASIPDDDTELLRDYVKKLLKHPRQ
notes: IraP, anti-adaptor induced by phosphate starvation, E. coli; also called His10-tagged IraP; source: E. coli, overexpressed, purified (essentially as Bougdour et al., 2008); not shown: His10, C-terminal, kept
Does B2 bind [3]?
Result: binds

Which “stoichiometry N” value [4] does the source give for B3 here?
The value was 2.

B4: RssBN, N-terminal domain of RssB (residues 1-129), untagged, purified (domain or fragment, E. coli, UniProt P0AEV1 1-129, looked up)
chain: MTQPLVGKQILIVEDEQVFRSLLDSWFSSLGATTVLAADGVDALELLGGFTPDLMICDIAMPRMNGLKLLEHIRNRGDQTPVLVISATENMADIAKALRLGVEDVLLKPVKDLNRLREMVFACLYPSMF
notes: RssB, E. coli, N-terminal domain, residues 1-129; also called N-domain of RssB; receiver domain; source: E. coli, Ub-fusion system, purified (IMAC, SEC)
For B4, which “stoichiometry N” value [2] is on record?
Its value is 2.
